In patent publication US20090068736A1 (TRUSTEES OF DARTMOUTH COLLEGE, published 2009):

Target: Mammalian (Human) 20S Proteasome (Mammalian (Human))
Test: cell-based or functional assay

I50 (µM), inhibition of chymotrypsin-like (ChT-L) peptidase activity of 20S proteasome, N-succinyl-LLVY-AMC substrate [µM]	Binder
0.004	RRRPRPPYLPRPRPPPFFPPRLPPRIPPGFPPRFPPRFP [PR39]
0.805	RRRPRPPYLPR [PR11]
0.819	RRKPRPPYLPR [K3]
0.851	RRRPRPAYLPR [A7]
1.22	RRRPRAPYLPR [A6]
2.37	RRRPRPPELPR [E8]
2.62	RRRPRPPELPRW [E8W12]
2.65	RRRPAPPYLPR [A5]
2.71	KKKPRPPYLPR [KKK]
2.77	RARPRPPYLPR [A2]
2.81	ARRPRPPYLPR [A1]
0.006	RRRPRPPYLPRW [W12]
3.15	RRAPRPPYLPR [A3]
4.99	RRRARPPYLPR [A4]
6.34	KRRPRPPELPR [K1E8]
11.3	ARAPRPPYLPR [ARA]
14.5	AARPRPPYLPR [AAR]
20.1	RAAPRPPYLPR [RAA]
49.4	ARRPRPPELPR [A1E8]
> 100	AAAPRPPYLPR [AAA-PR11]
0.034	RRRPRPPFLPRW [F8W12]
0.137	RRRPRPPYGPR [G9]
0.543	RKRPRPPYLPR [K2]
0.595	KRRRPPYLPR [K1]
0.685	RRRPRPPYLPA [A11]
0.715	RRRPRPPALPRW [A8W12]
0.782	RRRPRPPYLAR [A10]
